Tests used:
[1] = substrate: O=c1[nH]c(=O)n([C@H]2C[C@H](O)[C@@H](COP(=O)(O)O)O2)cc1-c1ccc(O)cc1; settings: Lacticaseibacillus casei
Description: (§1) Inhibitory effect against Lactobacillus casei thymidylate synthase

[2] = substrate: COC(=O)c1ccc(-c2cn([C@H]3C[C@H](O)[C@@H](COP(=O)(O)O)O3)c(=O)[nH]c2=O)cc1; settings: Lacticaseibacillus casei
Description: as §1

[3] = substrate: NC(=O)c1ccc(-c2cn([C@H]3C[C@H](O)[C@@H](COP(=O)(O)O)O3)c(=O)[nH]c2=O)cc1; settings: Lacticaseibacillus casei
Description: as §1

[4] = substrate: N#Cc1ccc(-c2cn([C@H]3C[C@H](O)[C@@H](COP(=O)(O)O)O3)c(=O)[nH]c2=O)cc1; settings: Lacticaseibacillus casei
Description: as §1

[5] = substrate: O=c1[nH]c(=O)n([C@H]2C[C@H](O)[C@@H](COP(=O)(O)O)O2)cc1-c1ccc(O)cc1; settings: Mus musculus
Description: (§2) Inhibitory effect on murine leukemia (L1210) thymidylate synthase

[6] = substrate: COC(=O)c1ccc(-c2cn([C@H]3C[C@H](O)[C@@H](COP(=O)(O)O)O3)c(=O)[nH]c2=O)cc1; settings: Mus musculus
Description: as §2

[7] = substrate: NC(=O)c1ccc(-c2cn([C@H]3C[C@H](O)[C@@H](COP(=O)(O)O)O3)c(=O)[nH]c2=O)cc1; settings: Mus musculus
Description: as §2

[8] = substrate: N#Cc1ccc(-c2cn([C@H]3C[C@H](O)[C@@H](COP(=O)(O)O)O3)c(=O)[nH]c2=O)cc1; settings: Mus musculus
Description: as §2

[9] = substrate: O=c1[nH]c(=O)n([C@H]2C[C@H](O)[C@@H](COP(=O)(O)O)O2)cc1-c1ccc(O)cc1; settings: Homo sapiens
Description: (§3) Inhibitory effect on human lymphoblast (Molt/4F) thymidylate synthase

[10] = substrate: COC(=O)c1ccc(-c2cn([C@H]3C[C@H](O)[C@@H](COP(=O)(O)O)O3)c(=O)[nH]c2=O)cc1; settings: Homo sapiens
Description: as §3

[11] = substrate: NC(=O)c1ccc(-c2cn([C@H]3C[C@H](O)[C@@H](COP(=O)(O)O)O3)c(=O)[nH]c2=O)cc1; settings: Homo sapiens
Description: as §3

[12] = substrate: N#Cc1ccc(-c2cn([C@H]3C[C@H](O)[C@@H](COP(=O)(O)O)O3)c(=O)[nH]c2=O)cc1; settings: Homo sapiens
Description: as §3

B1: Thymidylate synthase (Lactobacillus casei), P00469 (protein)
chain: MLEQPYLDLAKKVLDEGHFKPDRTHTGTYSIFGHQMRFDLSKGFPLLTTKKVPFGLIKSELLWFLHGDTNIRFLLQHRNHIWDEWAFEKWVKSDEYHGPDMTDFGHRSQKDPEFAAVYHEEMAKFDDRVLHDDAFAAKYGDLGLVYGSQWRAWHTSKGDTIDQLGDVIEQIKTHPYSRRLIVSAWNPEDVPTMALPPCHTLYQFYVNDGKLSLQLYQRSADIFLGVPFNIASYALLTHLVAHECGLEVGEFIHTFGDAHLYVNHLDQIKEQLSRTPRPAPTLQLNPDKHDIFDFDMKDIKLLNYDPYPAIKAPVAV
Km [1]: 4.8 µM | Km [2]: 4.19 µM | Km [3]: 4.01 µM | Km [4]: 4.37 µM

B2: Thymidylate synthase (Mus musculus), P07607 (protein)
chain: MLVVGSELQSDAQQLSAEAPRHGELQYLRQVEHILRCGFKKEDRTGTGTLSVFGMQARYSLRDEFPLLTTKRVFWKGVLEELLWFIKGSTNAKELSSKGVRIWDANGSRDFLDSLGFSARQEGDLGPVYGFQWRHFGAEYKDMDSDYSGQGVDQLQKVIDTIKTNPDDRRIIMCAWNPKDLPLMALPPCHALCQFYVVNGELSCQLYQRSGDMGLGVPFNIASYALLTYMIAHITGLQPGDFVHTLGDAHIYLNHIEPLKIQLQREPRPFPKLKILRKVETIDDFKVEDFQIEGYNPHPTIKMEMAV
Km [5]: 1.28 µM | Km [6]: 1.28 µM | Km [7]: 1.28 µM | Km [8]: 1.27 µM

B3: Thymidylate synthase (Homo sapiens), P04818 (protein)
chain: MPVAGSELPRRPLPPAAQERDAEPRPPHGELQYLGQIQHILRCGVRKDDRTGTGTLSVFGMQARYSLRDEFPLLTTKRVFWKGVLEELLWFIKGSTNAKELSSKGVKIWDANGSRDFLDSLGFSTREEGDLGPVYGFQWRHFGAEYRDMESDYSGQGVDQLQRVIDTIKTNPDDRRIIMCAWNPRDLPLMALPPCHALCQFYVVNSELSCQLYQRSGDMGLGVPFNIASYALLTYMIAHITGLKPGDFIHTLGDAHIYLNHIEPLKIQLQREPRPFPKLRILRKVEKIDDFKAEDFQIEGYNPHPTIKMEMAV
Km [9]: 1.54 µM | Km [10]: 1.38 µM | Km [11]: 1.48 µM | Km [12]: 1.51 µM

Source: ChEMBL document CHEMBL1124237, “Linear free energy relationship studies of enzyme active site binding: thymidylate synthase” (J Med Chem, 1988)
